In the supplement of paper PMC10126150:
± gives the standard deviation of the averaged measurements.

Tested on: ATP
Experiment: switch fluorescence ratio, 500 uM ATP over buffer (Cy3 cluster intensity, sum of 5 cycles each) (fold (ratio)); higher = stronger signal-on switching upon ATP binding; sequences stand for … in TCGTCGGCAGCGTCAGATGTGTATAAGAGACAGTTTTTTTTTTTTTTTTTTTTTTTTT…TC
Conditions: aptamer strand: ATP DNA aptamer (quencher-CACCTGGGGGAGTATTGCGGAGGAAGG + anchor), 100 nM annealed; ATP concentration: 500 uM
How it was run: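 Values give the fluorescence ratio for each switch-domain sequence, averaged from per-cluster ratios of summed target-cycle to summed buffer-cycle Cy3 intensity. The Cy3-labelled switching-strand clusters sat on a modified Illumina MiSeq flow-cell, were annealed to 100 nM quencher-labelled ATP aptamer, and were imaged in selection buffer, then after 15 min with 500 uM ATP at 22 °C. Five cycles ran with NaOH stripping and re-annealing between them, and clusters outside 100-1000 RFU were excluded.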
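Further: ATP exposure 15 min at 22 °C before imaging.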

Point of comparison: GGTTATAGAC, switch fluorescence ratio 0.994 ± 0.012. Against it:
- GGTCATGACG — lower, 0.923 ± 0.046
- GGTCATGTTG — within error, 0.997 ± 0.051
- GGTCATTTGT — within error, 1 ± 0.041
- GGTCCGATTA — within error, 1 ± 0.056
- GGTCCTAGAA — lower, 0.9724 ± 0.0011
- GGTCCTAGTC — within error, 0.946 ± 0.12
- GGTCCTGCAA — within error, 1.76 ± 1.1
- GGTCCTGTGG — within error, 1.005 ± 0.006
- GGTCGAAGGC — within error, 0.9859 ± 0.0069
- GGTCGCACCA — within error, 1.02 ± 0.033
- GGTCGCAGTT — within error, 0.999 ± 0.022
- GGTCGCCCAG — within error, 1.01 ± 0.035
- GGTCGGGCTT — within error, 1.01 ± 0.034
- GGTCGTGCGG — within error, 1 ± 0.018
- GGTCGTTGGT — higher, 1.04 ± 0.022
- GGTCTACATT — within error, 1.01 ± 0.032
- GGTCTAGACG — within error, 1.01 ± 0.044
- GGTCTAGATA — within error, 0.99 ± 0.026
- GGTCTAGATT — within error, 0.988 ± 0.013
- GGTCTGGCTT — within error, 0.988 ± 0.052
- GGTCTGGTGC — higher, 1.031 ± 0.0048
- GGTCTTAGTT — within error, 0.987 ± 0.035
- GGTCTTGGGC — within error, 1.02 ± 0.026
- GGTCTTGTGG — within error, 0.993 ± 0.032
- GGTCTTTCG — lower, 0.9794 ± 0.0025
- GGTGAAATGT — lower, 0.9561 ± 0.0059
- GGTGAAGCTG — within error, 1.05 ± 0.14
- GGTGAATGCG — within error, 0.9779 ± 0.0048
- GGTGACGTGG — higher, 1.02 ± 0.012
- GGTGACTGCT — lower, 0.9543 ± 0.0024
- GGTGAGAAAT — within error, 1.01 ± 0.04
- GGTGAGGCTA — within error, 1 ± 0.022
- GGTGAGGTTG — within error, 0.971 ± 0.02
- GGTGATACGC — within error, 1.001 ± 0.0035
- GGTGATATAG — within error, 0.984 ± 0.021
- GGTGATCGGC — within error, 0.986 ± 0.029
- GGTGATGGGC — within error, 1.01 ± 0.062
- GGTGATGGTG — within error, 0.976 ± 0.047
- GGTGATGTTG — lower, 0.9611 ± 0.0055
- GGTGATTATT — within error, 1.02 ± 0.029
- GGTGCATGGG — within error, 1.01 ± 0.034
- GGTGCATGGT — higher, 1.05 ± 0.011
- GGTGCCAAGT — within error, 1.004 ± 0.0052
- GGTGCCACTT — higher, 1.03 ± 0.024
- GGTGCCGCGG — within error, 1.01 ± 0.023
- GGTGCCGTTT — within error, 0.998 ± 0.026
- GGTGCCTGGG — within error, 1 ± 0.0011
- GGTGCGCGGA — higher, 1.034 ± 0.0064
- GGTGCTGGCA — within error, 0.956 ± 0.051
- GGTGCTTTTG — within error, 0.9888 ± 0.0085
- GGTGGAATGT — within error, 0.983 ± 0.049
- GGTGGAGCTA — higher, 1.03 ± 0.015
- GGTGGATGGC — within error, 1 ± 0.013
- GGTGGGAGTG — within error, 1.37 ± 0.66
- GGTGGGGCGC — within error, 1.01 ± 0.035
- GGTGGGGTCC — within error, 0.987 ± 0.011
- GGTGGGGTTT — within error, 0.999 ± 0.054
- GGTGGGTATT — within error, 0.966 ± 0.021
- GGTGGGTGCA — within error, 0.985 ± 0.036
- GGTGGTGGCT — within error, 1.04 ± 0.079
- GGTGGTGGGT — within error, 0.986 ± 0.021
- GGTGTAAGAG — within error, 0.987 ± 0.031
- GGTGTAGCGG — within error, 0.982 ± 0.065
- GGTGTAGGTG — within error, 0.9851 ± 0.0098
- GGTGTCATAT — within error, 0.984 ± 0.024
- GGTGTGAGTG — within error, 0.973 ± 0.025
- GGTGTGCTGT — within error, 0.957 ± 0.031
- GGTGTGGAGG — higher, 1.021 ± 0.0047
- GGTGTGGATC — higher, 1.021 ± 0.0029
- GGTGTGGCGT — within error, 1 ± 0.018
- GGTGTGGGGG — within error, 1.01 ± 0.04
- GGTGTGTCGT — within error, 1.02 ± 0.017
- GGTGTTAGG — within error, 1 ± 0.016
- GGTGTTAGTC — within error, 1.02 ± 0.036
- GGTGTTCACT — within error, 0.995 ± 0.019
- GGTGTTGGAC — within error, 0.997 ± 0.019
- GGTGTTGGG — within error, 1.01 ± 0.019
- GGTGTTTATC — within error, 1 ± 0.014
- GGTGTTTCGT — lower, 0.9735 ± 0.001
- GGTGTTTGGG — within error, 1 ± 0.039
- GGTGTTTTTT — within error, 0.99 ± 0.011
- GGTTAAAGCG — higher, 1.02 ± 0.013
- GGTTAAAGGT — within error, 1.02 ± 0.026
- GGTTAAGCGG — within error, 0.972 ± 0.021
- GGTTAAGGCA — higher, 1.022 ± 0.0034
- GGTTAAGGGT — within error, 0.9892 ± 0.0056
- GGTTAATTGT — within error, 0.993 ± 0.033
- GGTTACGAAG — within error, 1.01 ± 0.044
- GGTTACTGAG — within error, 0.98 ± 0.018
- GGTTAGAACG — within error, 1.02 ± 0.06
- GGTTAGGAGT — within error, 0.99 ± 0.0081
- GGTTAGGCGC — within error, 0.993 ± 0.012
- GGTTAGGGG — within error, 0.99 ± 0.028
- GGTTAGTTGG — within error, 0.978 ± 0.027
- GGTTATAATG — higher, 1.02 ± 0.012
- GGTTATCTTT — within error, 0.982 ± 0.047
- GGTTATGGG — within error, 0.993 ± 0.038
- GGTTATTTGA — within error, 0.974 ± 0.028
- GGTTCAGCGG — within error, 0.959 ± 0.035
